{"source": "paper PMC6471494", "about": "“Functional Mechanisms Underlying the Antimicrobial Activity of the Oryza sativa Trx-like Protein” (International Journal of Molecular Sciences, 2019)", "biological_target": "the molecule itself", "assay": "negative-stain transmission electron microscopy; SEC fractions a, b and c of OsTDX on glow-discharged carbon-coated copper grids, 1% uranyl acetate, FEI Tecnai 20 at 200 kV", "data": [{"protein": "Oryza sativa Tetratricopeptide Domain-containing thioredoxin (OsTDX) protein (natural protein, UniProt Q6ES52 1-317, looked up, OsTDX, Oryza sativa TPR repeat-containing thioredoxin; full-length cDNA amplified from a rice leaf cDNA library and cloned into pGEX-2T; predicted MW ~35 kDa; also called rice Trx-like protein; recombinant OsTDX; source: E. coli BL21(DE3), purified (glutathione-agarose, GST cleaved by thrombin, FPLC SEC 650 column)) MATAGASSFEDEIMESDIELEGEAVEPDNDPPQKMGDPSVEVSDEKRDQAQLCKNKGVDAFSEGKLDEAIEHLTEAIVLNPTSAIAYATRAVIFVKSKKPNAAIRDADAALKINPDSAKGYKSRGMAKAMLGKWEEAAQDLRMAAKLDYDEEIGAELKKVEPNVLKIEEHRKKYERLRKERDIKKAEMEKQRKHAEEVSAASAALKDGDVIAIHSSSELDTKLKAASSLSRLVVLYFTAAWCGPCRFIGPVCKSLAEKHRNVVFLKVDIDELNSVAYRWNVSSVPSFFFVRNGKEIDKVVGADKNGLERKVAQHGSS", "values": [{"measurement": "stoichiometry N", "value": 2}]}]}
